Laboratory results taken from patent publication EP2014310A2 (Dyax Corporation, dated 2009).
Blank lines part the entries; values can stand above or below the binder they belong to. Bridge positions count the residues as written; N and C are the ends. Ends that are not written are not given here. I, II: the chains in the order shown.

How the values were obtained:
[1] = target: T1, KDR on transiently KDR-transfected 293H cells (human, UniProt P35968 20-1356); experiment: displacement of 5.5 nM streptavidin-HRP/binding peptide complex from KDR-transfected 293H cells
T1 construct: whole, on cells; also called KDR-expressing cells
T1 sequence (P35968 20-1356): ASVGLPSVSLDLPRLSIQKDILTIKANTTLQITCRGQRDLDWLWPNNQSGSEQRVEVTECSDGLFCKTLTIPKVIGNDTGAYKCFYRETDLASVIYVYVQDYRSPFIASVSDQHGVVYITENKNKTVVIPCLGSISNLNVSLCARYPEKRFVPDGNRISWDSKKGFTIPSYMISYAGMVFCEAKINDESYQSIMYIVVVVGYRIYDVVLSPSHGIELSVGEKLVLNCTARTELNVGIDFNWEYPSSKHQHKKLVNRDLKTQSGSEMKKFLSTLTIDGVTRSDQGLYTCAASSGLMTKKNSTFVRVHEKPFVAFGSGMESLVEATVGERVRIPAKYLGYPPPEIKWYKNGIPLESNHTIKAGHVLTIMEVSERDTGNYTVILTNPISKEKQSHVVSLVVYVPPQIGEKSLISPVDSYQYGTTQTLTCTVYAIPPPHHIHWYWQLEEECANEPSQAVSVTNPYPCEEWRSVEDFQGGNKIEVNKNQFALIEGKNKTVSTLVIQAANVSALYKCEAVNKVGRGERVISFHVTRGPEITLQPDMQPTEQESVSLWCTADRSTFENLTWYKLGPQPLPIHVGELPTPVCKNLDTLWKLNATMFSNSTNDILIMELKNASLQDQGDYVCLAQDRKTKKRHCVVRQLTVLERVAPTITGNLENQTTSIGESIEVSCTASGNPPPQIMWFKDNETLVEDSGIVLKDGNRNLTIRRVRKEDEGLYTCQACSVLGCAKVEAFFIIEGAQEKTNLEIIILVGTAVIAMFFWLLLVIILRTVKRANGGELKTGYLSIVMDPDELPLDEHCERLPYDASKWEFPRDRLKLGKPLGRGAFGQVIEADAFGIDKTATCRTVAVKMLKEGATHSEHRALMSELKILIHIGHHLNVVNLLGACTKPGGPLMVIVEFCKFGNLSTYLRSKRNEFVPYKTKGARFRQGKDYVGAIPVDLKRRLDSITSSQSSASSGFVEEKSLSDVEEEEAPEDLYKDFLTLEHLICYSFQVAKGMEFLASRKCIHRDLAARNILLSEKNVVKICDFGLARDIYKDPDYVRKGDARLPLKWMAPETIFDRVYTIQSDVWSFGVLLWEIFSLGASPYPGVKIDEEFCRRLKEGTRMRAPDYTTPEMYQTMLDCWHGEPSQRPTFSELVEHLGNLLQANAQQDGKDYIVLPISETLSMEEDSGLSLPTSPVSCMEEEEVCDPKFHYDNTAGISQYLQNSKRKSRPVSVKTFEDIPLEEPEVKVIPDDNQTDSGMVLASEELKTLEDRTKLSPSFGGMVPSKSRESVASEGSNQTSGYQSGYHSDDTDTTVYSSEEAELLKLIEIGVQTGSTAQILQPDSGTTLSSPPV

[2] = target: T2, KDR/VEGF complex (KDR-Fc mixed or saturated with VEGF) (human, UniProt P35968 20-764; P15692 27-191); experiment: fluorescence anisotropy, fluorescein-labeled peptide, KDR-Fc with two fold excess VEGF
T2 construct: anisotropy: two fold molar excess of VEGF mixed with KDR-Fc; Biacore: KDR-Fc chip saturated with VEGF; also called KDR:VEGF165 complex
T2 sequence (P35968 20-764, chain 1 of 2): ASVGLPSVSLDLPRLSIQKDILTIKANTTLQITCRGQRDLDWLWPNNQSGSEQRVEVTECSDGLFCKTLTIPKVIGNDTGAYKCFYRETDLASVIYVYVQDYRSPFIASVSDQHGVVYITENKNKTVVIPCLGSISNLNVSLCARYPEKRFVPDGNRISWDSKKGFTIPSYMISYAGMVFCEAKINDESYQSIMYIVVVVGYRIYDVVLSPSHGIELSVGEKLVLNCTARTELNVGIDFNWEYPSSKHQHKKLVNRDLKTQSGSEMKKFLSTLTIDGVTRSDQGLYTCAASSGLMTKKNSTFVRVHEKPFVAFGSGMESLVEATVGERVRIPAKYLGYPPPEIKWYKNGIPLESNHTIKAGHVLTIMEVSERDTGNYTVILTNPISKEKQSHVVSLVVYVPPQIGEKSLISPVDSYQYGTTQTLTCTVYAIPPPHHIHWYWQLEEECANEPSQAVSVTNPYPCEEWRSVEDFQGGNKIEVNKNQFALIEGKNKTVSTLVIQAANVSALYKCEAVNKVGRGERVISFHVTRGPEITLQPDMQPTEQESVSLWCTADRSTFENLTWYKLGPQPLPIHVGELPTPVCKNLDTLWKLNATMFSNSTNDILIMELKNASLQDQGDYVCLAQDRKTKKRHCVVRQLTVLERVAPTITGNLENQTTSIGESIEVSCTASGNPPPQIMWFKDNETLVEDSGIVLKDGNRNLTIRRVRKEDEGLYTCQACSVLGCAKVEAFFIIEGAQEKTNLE
T2 sequence (P15692 other isoform, or with tags, fused parts or gaps, chain 2 of 2): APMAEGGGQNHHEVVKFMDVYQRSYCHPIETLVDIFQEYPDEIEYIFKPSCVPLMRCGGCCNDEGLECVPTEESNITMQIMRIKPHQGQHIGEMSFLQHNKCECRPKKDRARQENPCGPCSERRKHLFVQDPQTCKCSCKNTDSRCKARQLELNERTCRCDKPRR

[3] = target: T3, human KDR-Fc fusion (R&D Systems #357-KD-050) (human, UniProt P35968 20-764); experiment: fluorescence anisotropy, fluorescein-labeled peptide
T3 construct: bought
T3 sequence (P35968 20-764): as the sequence (P35968 20-764, chain 1 of 2) above

[4] = target: VEGF165 (Peprotech #100-20) (UniProt P15692-4 27-191); experiment: fluorescence anisotropy, fluorescein-labeled peptide, VEGF alone
VEGF165 (Peprotech #100-20), sequence (P15692 other isoform, or with tags, fused parts or gaps limits assumed): as the sequence (P15692 other isoform, or with tags, fused parts or gaps, chain 2 of 2) above

[5] = target: T3, human KDR-Fc fusion (R&D Systems …); experiment: Biacore steady state at the higher immobilization densities
[6] = target: T3, human KDR-Fc fusion (R&D Systems …); experiment: Biacore steady state, KD1 of double rectangular hyperbola, KDR-Fc 3000RU
[7] = target: T3, human KDR-Fc fusion (R&D Systems …); experiment: Biacore steady state, KD1 of double rectangular hyperbola, KDR-Fc 1600RU
[8] = target: T3, human KDR-Fc fusion (R&D Systems …); experiment: Biacore steady state, KD1 of double rectangular hyperbola, KDR-Fc 6000RU
[9] = target: KDR on human umbilical vein endothelial cells (HUVECs) (human, UniProt P35968 20-1356); experiment: cell-based or functional assay
KDR on human umbilical vein endothelial cells (HUVECs), sequence (P35968 20-1356): as the sequence (P35968 20-1356) above

[10] = target: T4, murine KDR-Fc fusion (R&D Systems #443-KD-050) (murine, UniProt P35918 20-762); experiment: BIAcore, KD1 = kd1/ka1, fluorescein-labeled peptide, murine KDR-Fc 2700RU
T4 construct: bought; also called recombinant murine KDR-Fc; rmKDR-Fc
T4 sequence (P35918 20-762): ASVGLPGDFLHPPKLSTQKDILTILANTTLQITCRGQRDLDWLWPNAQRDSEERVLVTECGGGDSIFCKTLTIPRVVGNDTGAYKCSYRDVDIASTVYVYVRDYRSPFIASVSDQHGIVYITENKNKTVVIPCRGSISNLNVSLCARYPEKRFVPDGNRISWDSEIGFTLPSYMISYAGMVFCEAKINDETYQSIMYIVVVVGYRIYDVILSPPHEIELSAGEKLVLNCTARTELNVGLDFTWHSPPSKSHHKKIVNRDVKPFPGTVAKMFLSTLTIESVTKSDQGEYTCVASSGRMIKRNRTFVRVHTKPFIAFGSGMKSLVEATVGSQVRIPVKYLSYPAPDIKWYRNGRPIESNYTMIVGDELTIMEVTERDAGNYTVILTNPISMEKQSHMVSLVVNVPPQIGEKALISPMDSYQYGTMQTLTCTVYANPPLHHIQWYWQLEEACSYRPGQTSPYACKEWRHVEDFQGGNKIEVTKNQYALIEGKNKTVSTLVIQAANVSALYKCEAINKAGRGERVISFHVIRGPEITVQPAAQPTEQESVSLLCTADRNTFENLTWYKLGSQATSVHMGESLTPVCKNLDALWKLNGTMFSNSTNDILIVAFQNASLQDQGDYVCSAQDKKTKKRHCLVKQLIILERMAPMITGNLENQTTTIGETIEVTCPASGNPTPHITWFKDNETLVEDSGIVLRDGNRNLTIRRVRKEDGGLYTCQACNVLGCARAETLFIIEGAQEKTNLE

[11] = target: T4, murine KDR-Fc fusion (R&D Systems …); experiment: BIAcore, KD1 = kd1/ka1, fluorescein-labeled peptide, murine KDR-Fc 5000RU
[12] = target: T3, human KDR-Fc fusion (R&D Systems …); experiment: SPR
[13] = target: T3, human KDR-Fc fusion (R&D Systems …); experiment: Biacore, KDR-Fc on CM5 chip, unlabeled peptide
[14] = target: KDR on transiently KDR-transfected 293H cells (human) (UniProt P35968); experiment: competition with 300 pM 125I-VEGF on KDR-transfected 293H cells, peptide 30 µM
KDR on transiently KDR-transfected 293H cells (human), sequence (P35968 20-1356): as the sequence (P35968 20-1356) above

[15] = target: KDR on transiently KDR-transfected 293H cells (human) (UniProt P35968); experiment: competition with 300 pM 125I-VEGF on KDR-transfected 293H cells, peptide 0.3 µM
[16] = target: T1, KDR on transiently KDR-transfected 293H …; experiment: displacement of 5.5 nM peptide/streptavidin-HRP complex from KDR-transfected 293H cells
[17] = target: T4, murine KDR-Fc fusion (R&D Systems …); experiment: BIAcore, KD1 = kd1/ka1, murine KDR-Fc 5000RU
[18] = target: human KDR-Fc fusion (R&D Systems #357-KD-050) (human) (UniProt P35968); experiment: SPR, reference D2
human KDR-Fc fusion (R&D Systems #357-KD-050) (human), sequence (P35968 20-764): as the sequence (P35968 20-764, chain 1 of 2) above

[19] = target: T4, murine KDR-Fc fusion (R&D Systems …); experiment: BIAcore, KD1 = kd1/ka1, murine KDR-Fc 2700RU

Binder: Ac-AGPTWKEDDWYYEWLFGTGGGK-NH2 (lactam 6-13) [SEQ ID NO:454, lactam disulfide bridge replacement analog]
IC50 [1]: 108 nM

Binder: Ac-GDSRVCWEDSWGGEVCFRYDPGGGK-NH2 (not fully specified; cysteine pairing not given here) [SEQ ID NO:294]
Kd [13]: 120 nM
% inhibition of 125I-labeled VEGF binding [14]: 96.3%
% inhibition of 125I-labeled VEGF binding [15]: 52.3%
VEGF-induced KDR phosphorylation in HUVECs [9]: ≥ 50 % inhibition at 10 µM

Binder: DWYYGGGK [SEQ ID NO:462, fragment of SEQ ID NO:356 (Asp-Trp-Tyr-Tyr motif with Gly-Gly-Gly-Lys)]
IC50 [16]: 850 nM

B4: dimer 1 (D1) (peptide)
peptide 1: Ac-AGPTWCEDDWYYCWLFGTGGGK
peptide 2: Ac-VCWEDSWGGEVCFRYDPGGG
modifications: cysteine pairing not given here; also: heterodimer, C-terminal Lys joined through Biotin-JJK-glutaryl-JJ linker to the second peptide, amide, C-terminus joined to a lysine amide of the linker
Kd [17]: 16 nM
fold higher affinity than D2 [18]: 10 fold
Kd [19]: 17.5 nM
IC50, VEGF-induced phosphorylation of KDR in HUVECs [9]: 0.5 to 1 nM

Further lines, results first:

Kd [2]: 140 nM
binding result [3]: no binding
Kd [4]: 10000 nM
B1: SEQ ID NO:320 (peptide)
peptide: Ac-AGMPWCVEKDHWDCWWWGTGGGK-NH2
modifications: disulfide 6-14 (inferred); not fully specified; also: C-terminal Lys fluorescein-labeled in some assay forms

Kd [5]: ~0.6 nM
Kd [6]: 25.5 nM
Kd [7]: 46 nM
Kd [8]: 17 nM
IC50, VEGF-induced migration of HUVECs [9]: ~12.5 nM
B2: D6, peptide heterodimer composed of SEQ ID NO:277 and SEQ ID NO:294 (peptide)
peptide 1: AGPTWCEDDWYYCWLFGTGGGK
peptide 2: GDSRVCWEDSWGGEVCFRYDPGGGK
modifications: linker (positions not given here) via glutaric acid; disulfide I:6-I:13, II:6-II:16 (inferred); also: heterodimer joined by glutaric acid linker, attachment places not given here
notes: made with glutaric acid bis N-hydroxysuccinimidyl ester

Kd [10]: 36.4 nM
Kd [11]: 33.6 nM
Binder: Ac-AGPTWCEDDWYYCWLFGTGGGK-NH2 (disulfide 6-13 (inferred); not fully specified) [SEQ ID NO:277]

Kd [12]: 11 nM
B3: tail-to-tail heterodimer comprising the polypeptides of SEQ ID NO:305 and SEQ ID NO:306 (peptide)
peptide 1: AQEPEGYAYWEVITLYHEEDGDGGK
peptide 2: AQAFPRFGGDDYWIQQYLRYTDGGK
modifications: not fully specified (bridges); also: tail-to-tail linker not given here
